The results in this text go back to patent US20240002479A1 (REGENTS OF THE UNIVERSITY OF MICHIGAN, published 2024).

Assay [1] has as its target T1, DENV2 NS1 (dengue virus serotype 2 non-structural protein 1), wild type (Dengue virus 2, UniProt P29990 776-1127).
T1 sequence: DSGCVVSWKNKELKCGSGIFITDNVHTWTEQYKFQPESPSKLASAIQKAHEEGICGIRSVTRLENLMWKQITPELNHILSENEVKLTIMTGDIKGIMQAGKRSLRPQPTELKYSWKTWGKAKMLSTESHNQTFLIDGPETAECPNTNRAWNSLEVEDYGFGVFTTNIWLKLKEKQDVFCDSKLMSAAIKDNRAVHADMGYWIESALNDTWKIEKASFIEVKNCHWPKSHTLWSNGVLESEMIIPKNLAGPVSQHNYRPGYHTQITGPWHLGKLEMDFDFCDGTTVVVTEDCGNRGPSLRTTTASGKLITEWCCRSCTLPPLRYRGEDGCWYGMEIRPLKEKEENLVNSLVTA
Nature of the assay: BLI, NS1 on anti-His tips; full-length 2B7, not Fab. Background: Biolayer interferometry detects binding as a change in optical thickness at a sensor tip.

Assay [2] has as its target T1, DENV2 NS1 (dengue virus serotype 2 …). Nature of the assay: direct ELISA, 2B7 titrated on purified DENV2 NS1, OD450. A general note: ELISA stands for enzyme-linked immunosorbent assay.
Assay [3] shares this target. Description: BLI, NS1 on anti-His tips, n=2 preparations.
Assay [4] shares this target. Nature of the assay: BLI, NS1 on anti-His tips; Fab, not full-length IgG.

B1: anti-DENV NS1 IgG2b mouse monoclonal antibody (mAb) 2B7 (antibody, V domains shown)
VH: EVQLQQSGPELVKPGASVKMSCKASGCTLTNCFMHWMKQKPGQDLEWIGYINPYNDMTKYSENFKGKATLTSDKSSSTAFMELSSLTSEDSAVYYCARGYLLRTGCFDYWGQGTTLTVSS
VL: NIVLTQSPASLAVSLGQRATISCRASESVDSYGYSFMHWYQQKPGQPPKVLIYLASNLESGVPARFSGSGSRTDFTLTIDPVEADDAATYYCQQNNENPLTFGAGTKLELKR
What is called Kd is the constant that tells how readily two partners part at equilibrium. The term EC50 (read off the curve) denotes the concentration needed to bring the measured effect to its halfway point. A low value points to higher potency in that assay. On to B1, for which, in assay [1], the dissociation constant (Kd) turned out to be 4.8 nM. Also, in assay [2], the concentration for a half-maximal effect (EC50 (read off the curve)) is around 5 ng/mL.

B2: 2B7 Fab (Fab, V domains shown)
VH: B1 VH
VL: NIVLTQSPASLAVSLGQRATISCRASESVDSYGYSFMHWYQQKPGQPPKVLIYLASNLESGVPARFSGSGSRTDFTLTIDPVEADDAATYYCQQNNENPLTFGAGTKLELK
For B2, the equilibrium dissociation constant (Kd) in assay [3] is 5 to 8 nM; in assay [4], 8.3 nM.
